Sequences and labels used below:
B1: Antibody 21 (antibody, V domains shown)
VH: QVQLVQSGAEVKKPGSSVKVSCKASGDTFSNHAINWVRQAPGQGLEWMGGYIPIFGTTNSAQKFRGRVTITADKSTNTAYMALSSLRSEDTAVYYCARGGLAGSHYKNYYYDGMDVWGQGTTVTVSS
VL: not shown
notes: Human variable region with rat Fc
B2: Antibody 13 (antibody, V domains shown)
VH: QVQLVQSGAEVKKPGSSVKVSCKVSGGTFSSYSISWVRQAPGQGLEWMGGIIPIFGTTNYAQKFQGRVTITADESTSTAYMDLSSLKSEDTAMYYCEGGRVGADFDYWGQGTLVTVSS
VL: SSDLTQGPAVSVALGQTVRITCQGDSLRNYYASWYQQKPGQAPVPVIYGKNDRPSGIPDRFSGSISGNTASLTITGAQAEDEAHYYCNSRDSSGNHVVFGGGTKLTVL
notes: as for B1
B3: Antibody 15 (antibody, V domains shown)
VH: EVQLVESGGGLVQPGRSLRLSCAASGFTFDDYAMHWVRQAPGKGLEWVSGITWNSGNIGYADSVKGRFTISRDNAKNSLYLHMNSLRIEDTAFYYCAKGRAVSDTFDIWGQGTMVTVSS
VL: SYELNQPPSVSVSPGQTASITCSGDKLGDKYASWYQQKPGQSPVVAIYQNSKRPSGIPERFSASNSGNTATLTISGTQALDEADYYCQAWDSSTWVFGGGTKLTVL
notes: as for B1
B4: Antibody 14 (antibody, V domains shown)
VH: QVQLQESGPGLVKPSQTLSLTCTVSGGSITSDGYHWSWIRQYPGKGLDWIGYIYYTGNTYYNPSLKSRVTISVGTSQNQFSLKLISVTAADTAVYYCARRLSTGPYFDYWGQGTLVTVSS
VL: QSALTQPASVSGSPGQSITISCTGTSSDVGGYEFVSWYQHHPGKAPKLMIYDVSSRPSGVSNRFSGSKSGNTASLTISGLQAEDEADYYCSSYTRSSTVVFGGGARLTVL
notes: as for B1
B5: Antibody 24 (antibody, V domains shown)
VH: QVQLQESGPGLVKPSETLSLTCGVSGGSISSTNWWSWVRQPPGKGLEWIGEIYQTGSTDYDPSLKSRVTISIDKSKNQFSLKLYSVTAADTAVYYCARRFGELDYWGQGTLVTVSS
VL: EIVMTQSPATLSVSPGERATLSCRASQSVTSNLAWYQQKPGQAPRLLIYDASTRATGIPARFSGSGSGTEFTLTISSLQSEDFAIYYCQQYNNWPTFGQGTRLEIK
notes: as for B1
B6: Antibody 18 (antibody, V domains shown)
VH: QVQLQESGPGLVKPSETLSLTCTVSGGSISNYYWNWIRQPPGKGLEWIGYIYYIGITDYNPSLKSRVTISVDTSKNQFSLKVTSVTAADTAVYYCAALSGDHAFDIWGQGTLVTVSS
VL: not shown
notes: as for B1
B7: Antibody 20 (antibody, V domains shown)
VH: QVQLQESGPGLVKPSETLSLTCAVSGYSISSGYYWGWIRQPPGKGLDWIGSIYYSGSTYYNPSLKSRVTISVDTSKNQISLKLSSVTAADTAVYYCATTYSDIVTGYYNDAFDIWGQGTMVTVSS
VL: EIVMTQSPATLSVSPGERATLSCRASQRINSNLAWYQQKPGQAPRLLIYGASTRATGIPARFSGSGSGTEFTLTISSLQSEDFAAYYCQQYDNWPLTFGGGTKVEIK
notes: as for B1
B8: Antibody 44 (antibody, V domains shown)
VH: QVQLVQSGAEVKKPGASVKVSCKASGYTFTSYYIHWVRQAPGQGLEWMGVTSPSGRSTSFAQKFQGRVTMTRDTSTSAVYMDLDSLRSEDTAVYYCARGGVTIHLERRGYFDYWGQGTLVIVSS
VL: not shown
notes: as for B1
B9: Antibody 19 (antibody, V domains shown)
VH: QLQLQESGPGLVKPSETLSLTCTVSGGSISSSSYYWGWIRQPPGKGLEWIGNIYYSGNTYYNPSLKSRVTISVDTSKNQFSLKLSSMTAADTAVYYCARCSGYGYSSGRSYFDYWGQETLVTVSS
VL: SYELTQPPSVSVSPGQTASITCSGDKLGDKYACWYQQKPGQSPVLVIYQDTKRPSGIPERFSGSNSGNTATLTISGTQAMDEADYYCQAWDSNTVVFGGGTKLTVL
B10: Antibody 16 (antibody, V domains shown)
VH: QVQLVESGGGVVQPGRSLRLSCAASGFTFSTYGFHWVRQPPGKGLEWVAVIYYDGINKYYADSVKGRFTISRDNSKNTLFLQMNSLRAEDTAVYYCAESDLDYWGQGTLVTVSS
VL: EIVLTQSPATLSLSPGERATLSCRASQSVSIYLAWYQQKPGQAPRLLIYDASNRATGIPARFSGSGSGTDFTLTISSLEPEDFAVYYCQQRSNWPLTFGPGTKVDIK
notes: as for B1
B11: Antibody 3 (antibody, V domains shown)
VH: B3 VH
VL: B3 VL
notes: Same variable regions as Antibody 15

Data on 11 molecules can be found in US20230083243A1 (VEGA THERAPEUTICS, published 2023).

The first test deals with T1, human Protein S (human, UniProt P07225 42-676).
T1 sequence: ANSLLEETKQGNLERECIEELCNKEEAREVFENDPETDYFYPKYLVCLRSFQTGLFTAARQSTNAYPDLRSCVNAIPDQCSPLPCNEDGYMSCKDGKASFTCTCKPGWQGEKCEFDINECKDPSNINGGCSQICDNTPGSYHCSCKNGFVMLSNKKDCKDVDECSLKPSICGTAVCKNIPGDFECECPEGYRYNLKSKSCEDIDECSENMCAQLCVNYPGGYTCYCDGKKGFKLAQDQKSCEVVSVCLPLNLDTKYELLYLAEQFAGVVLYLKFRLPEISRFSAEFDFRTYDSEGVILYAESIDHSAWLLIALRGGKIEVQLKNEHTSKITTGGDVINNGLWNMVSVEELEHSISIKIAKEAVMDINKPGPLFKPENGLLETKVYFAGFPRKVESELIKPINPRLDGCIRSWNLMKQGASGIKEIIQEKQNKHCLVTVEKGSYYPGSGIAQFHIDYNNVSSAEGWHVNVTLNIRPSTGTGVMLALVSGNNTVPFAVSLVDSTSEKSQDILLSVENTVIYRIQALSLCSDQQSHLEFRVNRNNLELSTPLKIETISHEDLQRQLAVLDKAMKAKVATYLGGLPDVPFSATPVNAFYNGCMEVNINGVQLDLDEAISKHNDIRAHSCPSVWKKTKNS
The test is described as follows: cell-based or functional assay.
For the molecule B1, the “IC50 APC” value is 6.23 nM.
Consider B2, for which the “IC50 APC” value amounted to 5.3 nM and the “IC50 TFPI” value is 51.1 nM.
The like results for B3 were, in that order, 13.5 nM and 77.3 nM.
The like results for B4 were, in that order, 8.76 nM and 73.3 nM.
The like results for B5 were, in that order, 17.9 nM and 73.6 nM.
With B6, the “IC50 APC” value was 12.8 nM.
On the same count and under the same terms, to B7 belongs 12.8 nM; to B8, 492 nM.
As for B9, the “IC50 APC” value is 81.2 nM and the “IC50 TFPI” value is 105 nM.
The corresponding values for B10 are 14 nM and 46.3 nM.

A further test addresses T1, human Protein S. The test is described as follows: ELISA; plate coated with human Protein S; 1 µg/ml antibody; 1 mM EDTA. On the procedure:
(§1) Calcium dependence of binding was determined using an ELISA based method. Briefly, high binding ELISA plates were coated with human Protein S. Then, buffer containing 1 μg/ml of antibody was applied to the well with either buffer containing 1 mM EDTA or 1 mM calcium chloride.
A general note: In an ELISA, binding on a coated surface is turned into a signal by an enzyme label.
Turning to B1, the “Binding to Protein S in EDTA (OD)” value was 1.4 OD.
Same read-out and setting: to B2 belongs 0.48 OD.
With B3, the “Binding to Protein S in EDTA (OD)” value amounted to 0.07 OD.
In the case of B4, the “Binding to Protein S in EDTA (OD)” value stood at 0.75 OD.
On the same count and under the same terms, to B5 belongs 0.06 OD; to B6, 0.1 OD; to B7, 0.26 OD.
Same read-out and setting: to B8 belongs 0.89 OD.
Same read-out and setting: with B9 the figure was 0.06 OD.
Take B10: the “Binding to Protein S in EDTA (OD)” value turned out to be 0.17 OD.

The next test has as its target T2, recombinant heavy chain Protein S (human, UniProt P07225 42-296).
T2 construct: Fragment of Protein S spanning amino acids 42-296, expressed and purified from HEK293 cells; also called Protein S heavy chain; heavy chain of Protein S
T2 sequence: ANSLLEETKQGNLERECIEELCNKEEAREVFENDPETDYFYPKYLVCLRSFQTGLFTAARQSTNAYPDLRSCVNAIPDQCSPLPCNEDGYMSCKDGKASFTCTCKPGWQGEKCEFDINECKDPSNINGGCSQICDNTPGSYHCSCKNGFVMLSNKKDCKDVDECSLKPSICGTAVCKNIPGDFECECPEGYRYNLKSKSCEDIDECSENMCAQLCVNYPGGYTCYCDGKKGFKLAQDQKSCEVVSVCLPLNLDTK
The test is described as follows: ELISA; plate coated with recombinant Protein S heavy chain; 1 mM CaCl2. The procedure:
Binding to the heavy chain of Protein S was determined using an ELISA based method. Briefly, high binding ELISA plates were coated with recombinant heavy chain Protein S expressed and purified from HEK293 cells. The “heavy chain” of Protein S represents a fragment of Protein S spanning amino acids 42-296. The coated plate was blocked with 1% casein solution. Then, buffer containing […] of antibody was applied to the well with buffer containing 1 mM calcium chloride.
Turning to B1, the “Binding to heavy chain (OD)” value was determined as 1.58 OD.
With B2, the “Binding to heavy chain (OD)” value was 1.63 OD.
For B3, the “Binding to heavy chain (OD)” value is 1.78 OD.
Take B4: the “Binding to heavy chain (OD)” value is 2.03 OD.
Same read-out and setting: with B5 the figure was 0.71 OD; with B6, 0.6 OD.
On the same count and under the same terms, to B7 belongs 1.54 OD; to B8, 0.48 OD.
On the same count and under the same terms, with B9 the figure was 0.61 OD; with B10, 1.67 OD.

Another test deals with T1, human Protein S. The test is described as follows: BLI Octet; antibody on anti-human Fc probe; Protein S 7.81-500 nM; 4 mM CaCl2. On the procedure: (§2) Binding characteristics of the Protein S antibodies were also further characterized using Octet. Using the Octet System (Sartorius), the binding of each antibody to both human and cynomolgus monkey (“cyno” in Table 10) Protein S was determined. The human Fc antibodies were immobilized onto anti-human Fc capture probes by placing the probes into 10 μg/ml antibody solution in 10 mg/ml bovine serum albumin, 20 mM Tris pH 7.0, 150 mM NaCl, and 4 mM calcium chloride. […] Next, the probes were placed into buffer and the dissociation rates were measured.
With B11, the affinity, expressed as Kd, was 0.0542 nM; the koff – broadly, the rate constant with which the complex falls apart – was found to be 8.86e-06 s⁻¹; the kon (in general, the rate constant with which the complex forms) stood at 164000 M⁻¹ s⁻¹.

For a further test, the target named is T3, cynomolgus monkey Protein S (cynomolgus monkey).
T3 construct: also called cyno Protein S
The description is as above. The procedure: as §2
As for B11, the Kd (as a rule, the free concentration of one partner at which half of the binding sites on the other are occupied at equilibrium, for simple one-to-one binding) is less than 0.001 nM; the koff is less than 1e-07 s⁻¹; the kon worked out at 127000 M⁻¹ s⁻¹.

The next test addresses T1, human Protein S. The test is described as follows: ELISA; plate coated with human Protein S; 1 µg/ml antibody; 1 mM calcium chloride. On the procedure:
as §1
B1: the “Binding to Protein S in CaCl2 (OD)” value stood at 1.92 OD.
On the same count and under the same terms, to B2 belongs 1.77 OD.
Regarding B3, the “Binding to Protein S in CaCl2 (OD)” value is 1.86 OD.
Regarding B4, the “Binding to Protein S in CaCl2 (OD)” value was 2.03 OD.
The same measure, in the same setting: to B5 belongs 1.72 OD; to B6, 1.96 OD.
Same read-out and setting: to B7 belongs 1.93 OD; to B8, 1.17 OD.
Consider B9, for which the “Binding to Protein S in CaCl2 (OD)” value came out at 1.68 OD.
For the molecule B10, the “Binding to Protein S in CaCl2 (OD)” value is 1.95 OD.

Another test concerns the target T1, human Protein S. The test is described as follows: SPR Biacore X100; antibody captured by anti-human IgG (Fc); Protein S 2-128 nM; 5 mM CaCl2; 1:1 fit. On the procedure: Binding characteristics of the Protein S antibodies were also determined. Binding interaction analysis was obtained by Surface Plasmon Resonance in a Biacore X100 instrument. The human anti-IgG (Fc) antibody was immobilized to the carboxymethylated dextran membrane on the sensor chip surface (CM5) via the free amine method for a contact time of 420 seconds. Human anti-IgG antibody at 25 μg/mL in 0.15 M NaCl was immobilized to 9,785 RU in 10 mM sodium acetate pH 5.0.
Dilution and running buffer were as follows: Hbs−EP+5 mM CaCl₂. Regeneration was obtained by 3 M MgCl₂. Binding constants (ka, kd, and KD) were determined using the Biacore X100 evaluation software, assuming a 1:1 interaction of Protein S and the tested monoclonal antibody under investigation.
For orientation: In SPR one partner is held on a chip, and binding of the other changes the refractive index at the surface.
B11 registered a Kd of 2.24 nM, a koff of 0.000569 s⁻¹ and a kon of 253000 M⁻¹ s⁻¹.
